The values that follow come from patent US20240117018A1.

Common to all, as to assay: cell-based or functional assay
Assay [1] addresses HIV-1 Env of pseudovirus X1632_S2_B10 (HIV-1).
The target in assay [2] is HIV-1 Env of pseudovirus BJOX010000.06.2 (HIV-1).
In assay [3] the target is HIV-1 Env of pseudovirus 6811.v7.c18 (HIV-1).
For assay [4], the target named is HIV-1 Env of pseudovirus 3817.v2.c59 (HIV-1).
Assay [5] concerns the target HIV-1 Env of pseudovirus T251-18 (HIV-1).
Assay [6] concerns the target HIV-1 Env of pseudovirus X2088_c9 (HIV-1).
Assay [7] addresses HIV-1 Env of pseudovirus C1080.c03 (HIV-1).
Assay [8] deals with HIV-1 Env of pseudovirus CNE5 (HIV-1).
For assay [9], the target named is HIV-1 Env of pseudovirus 89-F1_2_25 (HIV-1).
The target of assay [10] is HIV-1 Env of pseudovirus X1193_c1 (HIV-1).

Take PG16 (antibody): the IC50 neutralization (TZM.bl) was 0.012 µg/mL in assay [1]; 1.2 µg/mL in assay [2]; above 50 µg/mL in assay [3]; 8 ng/mL in assay [4]; 1.72 µg/mL in assay [5]; above 50 µg/mL in [6]. For the same substance, the IC50 neutralization (TZM.bl) in assay [7] was determined as 1 ng/mL; in [8], 8 ng/mL; in [9], 47.6 µg/mL; in [10], 0.018 µg/mL. The IC80 neutralization (TZM.bl) was 0.076 µg/mL in assay [1]; above 50 µg/mL in [2]; above 50 µg/mL in [3]; 0.06 µg/mL in assay [4]; 44.7 µg/mL in assay [5]; above 50 µg/mL in assay [6]. For the same substance, the IC80 neutralization (TZM.bl) in assay [7] is 3 ng/mL; in [8] it was 0.033 µg/mL; in [9] it was above 50 µg/mL; in assay [10], 0.11 µg/mL.
